Source: paper PMC10636567

Legend:
[1] = target: human LGI1–FLAG (leucine-rich, glioma inactivated 1 protein) (human) (UniProt O95970); assay: co-IP; HEK293T co-transfected; lysis 24 h after transfection in 20 mM Tris-HCl pH 8.0, 1 mM EDTA, 0.5% Fos-Choline-14; PSD-95-FLAG or LGI1-FLAG precipitated with FLAG-M2 agarose, washed with 100 mM NaCl, 1% Triton X-100, eluted with FLAG peptide; western blot, band intensities; n = 3
rat PSD-93-GFP (rat) = rat PSD-93-GFP (rat) (UniProt Q63622); assay: co-IP; HEK293T co-transfected; GFP-tagged MAGUK proteins precipitated with anti-GFP antibody; western blot
rat SAP102-GFP (rat) = rat SAP102-GFP (rat) (UniProt Q62936); assay: as above
rat PSD-95-FLAG (rat) = rat PSD-95-FLAG (rat) (UniProt P31016); assay: co-IP; HEK293T co-transfected; lysis 24 h after transfection in 20 mM Tris-HCl pH 8.0, 1 mM EDTA, 0.5% Fos-Choline-14; PSD-95-FLAG or LGI1-FLAG precipitated with FLAG-M2 agarose, washed with 100 mM NaCl, 1% Triton X-100, eluted with FLAG peptide; western blot, band intensities; n = 3
rat PSD-95-FLAG (rat), sequence (P31016 whole entry): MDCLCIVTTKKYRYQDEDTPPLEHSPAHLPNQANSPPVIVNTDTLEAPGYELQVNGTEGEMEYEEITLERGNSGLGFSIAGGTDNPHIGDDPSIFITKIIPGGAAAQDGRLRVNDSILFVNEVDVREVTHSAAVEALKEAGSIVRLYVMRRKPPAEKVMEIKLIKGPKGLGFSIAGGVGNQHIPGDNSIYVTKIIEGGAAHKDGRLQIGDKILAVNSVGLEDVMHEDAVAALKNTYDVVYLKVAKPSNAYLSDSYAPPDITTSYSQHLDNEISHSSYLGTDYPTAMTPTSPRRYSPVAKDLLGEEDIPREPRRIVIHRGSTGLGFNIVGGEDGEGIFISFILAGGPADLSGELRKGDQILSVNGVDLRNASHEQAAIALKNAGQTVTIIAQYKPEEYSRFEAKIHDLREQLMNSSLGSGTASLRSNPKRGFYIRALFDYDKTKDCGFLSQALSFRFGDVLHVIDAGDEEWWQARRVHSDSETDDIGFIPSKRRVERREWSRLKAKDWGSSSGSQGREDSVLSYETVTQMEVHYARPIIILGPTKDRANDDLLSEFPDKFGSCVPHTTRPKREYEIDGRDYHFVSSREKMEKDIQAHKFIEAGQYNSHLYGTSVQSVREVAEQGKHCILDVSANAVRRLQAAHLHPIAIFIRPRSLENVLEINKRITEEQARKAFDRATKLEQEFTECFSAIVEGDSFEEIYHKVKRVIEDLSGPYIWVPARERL

human LGI1–FLAG (leucine-rich, glioma inactivated 1 protein) (human), sequence (O95970 35-557): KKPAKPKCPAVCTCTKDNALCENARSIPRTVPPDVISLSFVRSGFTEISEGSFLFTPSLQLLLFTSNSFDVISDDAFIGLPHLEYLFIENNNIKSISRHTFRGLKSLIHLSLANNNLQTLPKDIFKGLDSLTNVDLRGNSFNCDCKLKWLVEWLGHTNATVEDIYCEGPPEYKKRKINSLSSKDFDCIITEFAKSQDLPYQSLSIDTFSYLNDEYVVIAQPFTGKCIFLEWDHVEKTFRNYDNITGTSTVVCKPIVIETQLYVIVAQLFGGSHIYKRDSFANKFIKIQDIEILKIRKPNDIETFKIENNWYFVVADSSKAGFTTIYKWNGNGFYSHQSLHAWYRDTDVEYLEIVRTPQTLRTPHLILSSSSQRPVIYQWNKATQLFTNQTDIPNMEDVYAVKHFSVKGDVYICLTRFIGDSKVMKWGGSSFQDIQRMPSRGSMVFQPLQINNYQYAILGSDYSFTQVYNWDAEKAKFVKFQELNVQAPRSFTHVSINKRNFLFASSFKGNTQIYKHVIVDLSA
rat PSD-93-GFP (rat), sequence (Q63622 whole entry): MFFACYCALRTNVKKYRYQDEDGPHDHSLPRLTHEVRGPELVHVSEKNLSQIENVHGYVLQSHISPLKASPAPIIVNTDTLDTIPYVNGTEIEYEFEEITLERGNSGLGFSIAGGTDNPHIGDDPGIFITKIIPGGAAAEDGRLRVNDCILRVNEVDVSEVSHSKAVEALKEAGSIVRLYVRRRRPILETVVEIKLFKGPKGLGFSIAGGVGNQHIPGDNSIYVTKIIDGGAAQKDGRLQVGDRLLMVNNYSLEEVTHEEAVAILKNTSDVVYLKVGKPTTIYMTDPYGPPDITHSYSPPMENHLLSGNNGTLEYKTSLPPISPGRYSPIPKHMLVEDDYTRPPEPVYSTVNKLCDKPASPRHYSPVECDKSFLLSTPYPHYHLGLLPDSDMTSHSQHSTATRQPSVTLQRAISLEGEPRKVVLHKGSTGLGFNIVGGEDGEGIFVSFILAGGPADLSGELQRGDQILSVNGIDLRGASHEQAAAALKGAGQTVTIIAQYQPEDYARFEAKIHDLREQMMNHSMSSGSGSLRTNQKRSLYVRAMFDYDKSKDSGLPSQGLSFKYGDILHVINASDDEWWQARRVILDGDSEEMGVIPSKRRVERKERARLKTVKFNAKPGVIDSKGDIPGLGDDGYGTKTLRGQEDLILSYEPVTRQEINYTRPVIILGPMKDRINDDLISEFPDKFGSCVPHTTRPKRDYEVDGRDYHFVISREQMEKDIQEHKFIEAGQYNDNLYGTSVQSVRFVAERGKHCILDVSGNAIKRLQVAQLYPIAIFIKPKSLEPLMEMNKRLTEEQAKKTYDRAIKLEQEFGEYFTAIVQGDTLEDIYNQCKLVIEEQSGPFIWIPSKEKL
rat SAP102-GFP (rat), sequence (Q62936 whole entry): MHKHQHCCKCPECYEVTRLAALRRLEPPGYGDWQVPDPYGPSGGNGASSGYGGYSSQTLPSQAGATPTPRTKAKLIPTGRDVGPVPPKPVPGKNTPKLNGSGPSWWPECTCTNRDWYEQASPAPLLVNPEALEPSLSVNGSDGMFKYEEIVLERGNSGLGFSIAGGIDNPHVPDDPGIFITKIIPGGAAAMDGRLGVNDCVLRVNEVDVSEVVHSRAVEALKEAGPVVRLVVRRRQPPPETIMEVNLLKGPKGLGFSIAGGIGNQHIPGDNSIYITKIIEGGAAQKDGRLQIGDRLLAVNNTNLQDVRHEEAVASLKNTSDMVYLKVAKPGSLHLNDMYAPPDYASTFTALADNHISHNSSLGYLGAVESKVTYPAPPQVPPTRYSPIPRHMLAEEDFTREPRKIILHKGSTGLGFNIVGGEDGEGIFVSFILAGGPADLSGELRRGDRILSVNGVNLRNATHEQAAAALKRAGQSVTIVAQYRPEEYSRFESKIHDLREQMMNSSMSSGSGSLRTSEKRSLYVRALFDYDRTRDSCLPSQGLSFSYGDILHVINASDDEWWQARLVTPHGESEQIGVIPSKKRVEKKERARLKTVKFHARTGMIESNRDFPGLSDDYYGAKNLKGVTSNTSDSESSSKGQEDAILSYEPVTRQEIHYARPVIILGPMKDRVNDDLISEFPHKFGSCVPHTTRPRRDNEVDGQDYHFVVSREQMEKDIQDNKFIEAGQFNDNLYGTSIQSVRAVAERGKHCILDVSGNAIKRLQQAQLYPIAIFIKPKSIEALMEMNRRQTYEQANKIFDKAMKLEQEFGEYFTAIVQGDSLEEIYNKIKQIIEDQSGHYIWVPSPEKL

Substance “ADAM22 C401Y variant (from UniProt Q9P0K1 26-906) (receptor)” has a co-immunoprecipitated amount, percent of wild type [1] of 40%.
Substance “human ADAM22 S905F variant (from UniProt Q9P0K1-1 26-906) (receptor)” has a co-immunoprecipitated amount, percent of wild type (rat PSD-93-GFP (rat)) of 20%, a co-immunoprecipitated amount, percent of wild type (rat SAP102-GFP (rat)) of 20% and a co-immunoprecipitated amount, percent of wild type [1] of 75%. The co-immunoprecipitated amount, percent of wild type (rat PSD-95-FLAG (rat)) was 20%.
